Laboratory results from article PMC4082292, “Analysis of Y-P30/Dermcidin expression and properties of the Y-P30 peptide” (BMC Research Notes, 2014).

Tests used:
[1] = chemical stability; Y-P30 (aa 21-49) 2 μg/μl in PBS, room temperature, Eppendorf tube on bench shelf with regular light exposure; 24, 48, 72 h, 7 and 14 days; SDS-PAGE, immunoblot with rabbit anti-Y-P30; 13,5 μg per lane
Protocol: (§1) Y-P30 (aa 21–49) was synthesized as described previously [1]. For measuring stability of the peptide in vitro, Y-P30 was diluted in PBS (2 μg/μl) and incubated at room temperature over 24, 48 and 72 hours as well as 7 and 14 days. Additionally, the effect of different denaturing agents (urea, 8 M; dithiothreitol (DTT), 50 mM and 100 mM; iodoacetamide, 50 mM) was studied with incubation times of 2 and 12 hours. Thereafter, 4x sample loading dye (containing 5% beta-mercaptoethanol and 8% SDS) was added to 1x final concentration, all samples were boiled for 5 min at 95°C and subjected to SDS-PAGE with subsequent immunoblotting using a rabbit anti-Y-P30 antibody described previously [1, 2].

[2] = Oligomerization of synthetic Y-P30 and resistance to denaturing agents (SDS-PAGE/immunoblot); assay type: physicochemical; details: immunoblot
Protocol: as §1

Y-P30: synthetic survival promoting peptide, aa 21–49 of the human Y-P30/dermcidin precursor (DPEAASAPGSGNPCHEASAAQKENAGEDP; Survival-promoting peptide; UniProt P81605 21-49, looked up, fragment)
time for which the 15 kDA oligomer is stable [1]: at least 14 days | apparent size of SDS-resistant multimer of the synthetic peptide ([2]; SDS-PAGE after boiling 5 min at 95°C in loading dye (5% beta-mercaptoethanol, 8% SDS at 4x), 10 μg per lane): 10–15 kDa | resistance of the 10-15 kDa oligomer species to denaturing agents ([2]; urea 8 M, DTT 50 mM and 100 mM, iodoacetamide 50 mM, incubation 2 h and 12 h (overnight), SDS-PAGE): resistant to urea, DTT and iodoacetamide
